Experimental data taken from patent publication US20210346432A1.

Legend:
ET140-p25 (human) = target: T1, ET140-p25 (human); test: peptide ELISA on streptavidin plate, antibody 1 ug/mL
T1 sequence (peptide, N-terminal biotin): SGSGLRCSSNTPPLTCQRY

ET140-p26 (human) = target: T2, ET140-p26 (human); test: as above
T2 sequence (peptide, N-terminal biotin): SGSGRCSSNTPPLTCQRYC

A450 (ET140-p25 (human)): 0.492 | A450 (ET140-p26 (human)): 0.162
Substance: 901mIgG (antibody)
